Assay results from publication PMC4426065 (Structure (London, England : 1993), 2015).

B1: Atg1 EAT domain (K. lactis Atg1 residues 562-831) (domain or fragment, Kluyveromyces lactis, UniProt Q6CSX2 562-831, looked up)
chain: DSNITPAVESLAAKAFVMYSFAEMKFSQILPTPPSSTDYDPLSDKRLSNGSCAIEDEEDLDQGRPPSNQTLTSATTKISSATNVDTQIPAPELKKLCTESLLLYLKALTILAASMKLTSKWWYENESKNCTLKLNILVQWIRDRFNECLDKAEFLRLKLHAINTSPNSQWSDDDPVIFVEKLIYDRALDISRNAARMEMESGNYNTCELAYATSLWMLEILLDENFQFNEVYDDEYASNITSLDESDKEMIKKYISSIANRLKALKSKMV
B2: Atg13 residues 350-525 (K. lactis) (domain or fragment, Kluyveromyces lactis, UniProt Q6CWK2 350-525, looked up)
chain: AALKVQRGSAGSTIVNGDVPPELSSVGSGSKYSSSFGRIRRHSSIRRSESFDRTAKPRKSTENPPEDLLEFVKLLEDKKELNMKPNTILPQQDISNSLMRFQSMKSNNDALSDNLSMSMSIDQPNVRFGSNSHSPIPSFSPNYGSIPSRLSQGSRNNSNAELITSRKSSLDRHKHN
B3: Atg17 (K. lactis) (natural protein, Kluyveromyces lactis, UniProt Q6CS99 1-423, looked up)
chain: MSDAATTIPSDEIDKLWNKARNQLVEAQVECEESLKILSKVRTEMDSSQKSRFKLKFILNCLVNQVEFFKNIMLEKCISTELIDNEWSKLVLVEIVNDVSYWQNEITTKMKILQGTKYDLTDDHSSLSDFICMDHVDILQQKIDEIPIIKQQVTNIRQHYKSIKDRIENQLVAVKLKKLRTYFDSHFSRDSKNNLFKLLESDYVTELNEFENELADFLRSITDHFDKCTILKEQQIPLPDLKELFQIVKKDDTQLENIRELVFETGLEVKAFSKKVNETISEIMDKIGGFHLLASKIVTELEKCEEYLSIFQKIANLVFVYKESCIKKIEQVQQLCEFYDKFKLGYKNLLRERDRRKATALQMEKILKECQEKLQALSDADLDQRQQFLLENGDYLPENIWPGYIDDMESMYSFEYSIHNVPN

Tests used:
Test in all cases: SAXS
[1] = biological target: Atg17-Atg31-Atg29_(1-85) subcomplex from Kluyveromyces lactis (dimeric double crescent) (Kluyveromyces lactis) (UniProt Q6CS99)
[2] = biological target: Atg1 minipentamer: Atg1EAT-Atg13_(350-525)-Atg17-Atg31-Atg29_(1-85) (K. lactis) (Kluyveromyces lactis) (UniProt Q6CSX2)
SAXS [3] = biological target: the molecule itself
Atg17 (K. lactis) = biological target: B3
SAXS [4] = biological target: the molecule itself; remark: listed apart in the source

For “Atg17-Atg31-Atg29_(1-85) subcomplex from Kluyveromyces lactis (dimeric double crescent) (from UniProt Q6CS99 1-423; Q6CTU8 1-85)”, the stoichiometry N [1] was 4.

“Atg1 minipentamer: Atg1EAT-Atg13_(350-525)-Atg17-Atg31-Atg29_(1-85) (K. lactis) (from UniProt Q6CSX2 562-831; Q6CWK2 350-525; Q6CS99 1-423; Q6CTU8 1-85) (complex)” showed a stoichiometry N [2] of 4.

For B1, the “stoichiometry N” value (SAXS [3]) was 2.

B2: binds (Atg17 (K. lactis)).

B3: binds (SAXS [4]).
